Source: publication PMC9117555 (iScience, 2022)
Values belong to the molecule of their own block, whether it stands above or below them.

Legend:
TrkA-ΔeJTM (rat) = TrkA-ΔeJTM (rat) (UniProt P35739); assay: flow cytometry on cells
solution NMR = biological target: the molecule itself; assay: solution NMR
cross-linking = biological target: the molecule itself; assay: cross-linking
[1] = biological target: rat TrkA with an N-terminal HA tag (wild type) (rat, UniProt P35739 33-799); assay: flow cytometry on cells

Kd (TrkA-ΔeJTM (rat)): 760 nM
Molecule: biotinylated NGF (nerve growth factor) (from UniProt P01139 122-241) (ligand)

B1: TrkA-eJTM-TMD (D380-K447 of human TrkA) (domain or fragment, UniProt P04629 380-447, looked up)
chain: DNPFEFNPEDPIPVSFSPVDTNSTSGDPVEKKDETPFGVSVAVGLAVFACLFLSTLLLVLNKCGRRNK
stoichiometry N (solution NMR): 2

B2: TrkA-eJTM-TMD-K410C (domain or fragment, human, UniProt P04629 380-447, looked up)
chain: DNPFEFNPEDPIPVSFSPVDTNSTSGDPVECKDETPFGVSVAVGLAVFACLFLSTLLLVLNKCGRRNK
modifications: also: disulfide between C410 of two chains in the cross-linked state (dimer)
stoichiometry N (cross-linking): 2

Kd [1]: 4.4 nM
B3: biotinylated NGF (nerve growth factor) (ligand, UniProt P01139 122-241, looked up)
chain: SSTHPVFHMGEFSVCDSVSVWVGDKTTATDIKGKEVTVLAEVNINNSVFRQYFFETKCRASNPVESGCRGIDSKHWNSYCTTTHTFVKALTTDEKQAAWRFIRIDTACVCVLSRKATRRG
modifications: biotin (EZ-Link Sulfo-NHS-Biotin reagent; sites not stated)
